# The DeepSol protein solubility set
# Test: soluble on expression in E. coli; label from the status in PepcDB or PDB records
row,Sequence,soluble on expression in E. coli
1,MGSSHHHHHHSSGLVPRGSHMIMIHIKAIHDLTVPLETYMPIWPTNPLLEIKPVGTVARDGYKIETISGSTHSGTHIDAPAHMLENGITIDQIDPIRFIGTGYCIKTIPDGNFVRSTHLIEKWKEEYDGSIILIETGWYKKRGFTREFQYEFPGLTEDAAEFLIERNVKLVGIDTLGIEPYQDSDFHVHKKLLSKGIPFIEDLYGLDDLEEGKPYLVVALPLKMKGASGSMARVMALEMD,soluble
2,MGSSHHHHHHSSGLVPRGSHMIMLRIPTRSYCSPSKLIKGVGLSPLKKSLLSKKIKEDIHPSLPVRTRFAPSPTGFLHLGSLRTALYNYLLARNTNGQFLLRLEDTDQKRLIEGAEENIYEILKWCNINYDETPIKQSERKLIYDKYVKILLSSGKAYRCFCSKERLNDLRHSAMELKPPSMASYDRCCAHLGEEEIKSKLAQGIPFTVRFKSPERYPTFTDLLHGQINLQPQVNFNDKRYDDLILVKSDKLPTYHLANVVDDHLMGITHVIRGEEWLPSTPKHIALYNAFGWACPKFIHIPLLTTVGDKKLSKRKGDMSISDLKRQGVLPEALINFCALFGWSPPRDLASKKHECFSMEELETIFNLNGLTKGNAKVDDKKLWFFNKHFLQKRILNPSTLRELVDDIMPSLESIYNTSTISREKVAKILLNCGGSLSRINDFHDEFYYFFEKPKYNDNDAVTKFLSKNESRHIAHLLKKLGQFQEGTDAQEVESMVETMYYENGFSRKVTYQAMRFALAGCHPGAKIAAMIDILGIKESNKRLSEGLQFLQREKK,soluble
3,MGSSHHHHHHSSGLVPRGSHMKLNRVVVTGYGVTSPIGNTPEEFWNSLATGKIGIGGITKFDHSDFDVHNAAEIQDFPFDKYFVKKDTNRFDNYSLYALYAAQEAVNHANLDVEALNRDRFGVIVASGIGGIKEIEDQVLRLHEKGPKRVKPMTLPKALPNMASGNVAMRFGANGVCKSINTACSSSNDAIGDAFRSIKFGFQDVMLVGGTEASITPFAIAGFQALTALSTTEDPTRASIPFDKDRNGFVMGEGSGMLVLESLEHAEKRGATILAEVVGYGNTCDAYHMTSPHPEGQGAIKAIKLALEEAEISPEQVAYVNAAGTSTPANEKGESGAIVAVLGKEVPVSSTKSFTGHLLGAAGAVEAIVTIEAMRHNFVPMTAGTSEVSDYIEANVVYAQGLEKEIPYAISNTFGFGGHNAVLAFKRWENR,soluble
4,MGSSHHHHHHSSGLVPRGSHMLDFNIEGLIPKNMEKRGELVLNEYLKEIEDVFNHRKIPENGIDDEKIKLFLKFLSMMDTDKDPKSVRIGEREARTYSKIHEELSSGFCHGIGRSGNLVDPQPKASGASIMYALTNKILESFFKQLGLNVHAIATPISTGMSISLCLSAARKKYGSNVVIYPYASHKSPIKAVSFVGMNMRLVETVLDGDRVYVPVEDIENAIKKEIELGNRPCVLSTLTFFPPRNSDDIVEIAKICENYDIPHIINGAYAIQNNYYLEKLKKAFKYRVDAVVSSSDKNLLTPIGGGLVYSTDAEFIKEISLSYPGRASATPVVNTLVSLLSMGSKNYLELVKNQKNSKKLLDELLNDLSKKTGGKFLDVESPIASCISVNSDPVEIAAKLYNLRVTGPRGIKKTDHFGNCYLGTYTHDYIVMNAAIGVRTEDIVNSVSKLEKILL,soluble
5,MGSSHHHHHHSSGLVPRGSHMLESSGNRDIAQVVTENNKNYLVLYASQTGTAEDYAKKFSKELVAKFNLNVMCADVENYDFESLNDVPVIVSIFISTYGEGDFPDGAVNFEDFICNAEAGALSNLRYNMFGLGNSTYEFFNGAAKKAEKHLSAAGAIRLGKLGEADDGAGTTDEDYMAWKDSILEVLKDELGVEATGEESSIRQYELVVHTDIDAAKVYMGEMGRLKSYENQKPPFDAKNPFLAAVTTNRKLNQGTERHLMHLELDISDSKIRYESGDHVAVYPANDSALVNQLGKILGADLDVVMSLNNLDEESNKKHPFPCPTSYRTALTYYLDITNPPRTNVLYELAQYASEPSEQELLRKMASSSGEGKELYLSWVVEARRHILAILQDCPSLRPPIDHLCELLPRLQARYYSIASSSKVHPNSVHICAVVVEYETKAGRINKGVATNWLRAKEPAGENGGRALVPMFVRKSQFRLPFKATTPVIMVGPGTGVAPFIGFIQERAWLRQQGKEVGETLLYYGCRRSDEDYLYREELAQFHRDGALTQLNVAFSREQSHKVYVQHLLKQDREHLWKLIEGGAHIYVCGDARNMARDVQNTFYDIVAELGAMEHAQAVDYIKKLMTKGRYSLDVWS,soluble
6,MGSSHHHHHHSSGLVPRGSHMNNIDFDSIAKMLLIKYKDFILSKFKKAAPVENIRFQNLVHTNQFAQGVLGQSQHLCTVYDNPSWHSIVLETLDLDLIYKNVDKEFAKDGHAEGENIYTDYLVKELLRYFKQDFFKWCNKPDCNHCGQNTSENMTPLGSQGPNGEESKFNCGTVEIYKCNRCGNITRFPRYNDPIKLLETRKGRCGEWCNLFTLILKSFGLDVRYVWNREDHVWCEYFSNFLNRWVHVDSCEQSFDQPYIYSINWNKKMSYCIAFGKDGVVDVSKRYILQNELPRDQIKEEDLKFLCQFITKRLRYSLNDDEIYQLACRDEQEQIELIRGKTQETKSESVSAASK,soluble
7,MGSSHHHHHHSSGLVPRGSHMNQDPTQQLEPFLKRFLASLDLLYTQPTSQPFPNVESYATQLGSNLKRSSAIIVNGQPIIPSPQEDCKLQFQKKWLQTPLSSHQLTSYDGHLIPGTGTFVVHFSAKVRFDQSGRNRLGESADLFQENNSIVSKTNQRPIWGSWFGVDVNLVVDENVMQDGEIINSMDYRFTYVPNDSIIKV,soluble
8,MGSSHHHHHHSSGLVPRGSHMSSEFIEAGAADRVRILSEALPYLQQFAGRTVVVKYGGAAMKQEELKEAVMRDIVFLACVGMRPVVVHGGGPEINAWLGRVGIEPQFHNGLRVTDADTMEVVEMVLVGRVNKDIVSRINTTGGRAVGFCGTDGRLVLARPHDQEGIGFVGEVNSVNSEVIEPLLERGYIPVISSVAADENGQSFNINADTVAGEIAAALNAEKLILLTDTRGILEDPKRPESLIPRLNIPQSRELIAQGIVGGGMIPKVDCCIRSLAQGVRAAHIIDGRIPHALLLEIFTDAGIGTMIVGSGYHEAHQPWQ,soluble
9,MGSSHHHHHHSSGRENLYFQGMVDADGIYYLGPEGSFTHEAASLFKGKDLKAESTISLVFKRVYERESSIGIVPIENSLEGPVNETLDNLYNYDNIYVIGEIEKKIELVLAARSDNLSQIKRIYSHPHAFNEAREKLKELGFNEYIPVESTSKAAKIVSQDSEAAAICSNFAAKLYNLKVLITISSHNNYTRFIVLSKEMNSNGNKSMILFTVPHKPGALYKVLQVFYEYNINISMIYSRPLKSIPWQYYFYLEYEGGISNREFIEKLVKSTSVLKIKGSFSKLNNDPGF,soluble
10,MGSSHHHHHHSSGRENLYFQGSPVEKYNFKAEVNKVMDIIVNSLYTDKDVFLRELISNASDACDKKRIILENNKLIKDAEVVTNEEIKNETEKEKTENVNESTDKKENVEEEKNDIKKLIIKIKPDKEKKTLTITDNGIGMDKSELINNLGTIAQSGTAKFLKQIEEGKADSNLIGQFGVGFYSSFLVSNRVEVYTKKEDQIYRWSSDLKGSFSVNEIKKYDQEYDDIKGSGTKIILHLKEECDEYLEDYKLKELIKKYSEFIKFPIEIWSE,soluble
11,MGSVNGAEALKALYALQEKDLEIDRLRAEAESPPEELVALQGQVEALEERLTNLLERRAELEREYNRHSLDIEDLSAKEKQAEEEQKRAQSAREQTQYENRIQQIKDRIRELLELSTPIMEAMENLEAEIAQVEEELAALRPRLQELLEANRARVAELEAAIAAKVEERTTMAAAIPAQILKEYEAIRRARRGTGVARMAAQGQVYRCEGCNVVLPTHVAQKVVRGQVVRCPSCGRLLWKGE,soluble
12,MGTFTATYFLKNAFWDKRGLWTATLAVAYFARCWESAGYNKAEMMKGHSKMYADRLKQLPAHTDAWKY,not soluble
13,MGTKLPRKLEQKMQIVGEQIKLARLRRNLSIAQIAERATCSPLTVGRIEKGSPTVAIGIYARVLYALQLEDDLLHLAGADELGRRLQDLSLINRRRASKKG,not soluble
14,MGTTLEVLRTGPLALVEDLGRPGLAHMGVTRSGAADRRSHTLANRLVANPGESATIEVTFGGFSARVCGGDVAIAVTGADTDPAVNGIPFGTNSIHHVHDGQVISLGAPHSGLRSYLAVRGGIDVTPVLGSRSYDVMSAIGPSPLRPGDVLPVGEHTDEFPELDQAPVAAIAEDVVELQVVPGPRDDWFVDPDILVRTNWLVTNRSDRVGMRLVGMPLEYRNPDRQLPSEGATRGAIQVPPNGFPVILGPDHPVTGGYPVIGVVTEEDIDKLGQVRPGQTVRLHWAYPRRPFETLESGKETAAAKFERQHMDSSTSAA,soluble
